Test results taken from paper PMC9953004, “Scandium-44 Radiolabeled Peptide and Peptidomimetic Conjugates Targeting Neuropilin-1 Co-Receptor as Potential Tools for Cancer Diagnosis and Anti-Angiogenic Therapy” (Biomedicines, 2023).
Where two headings read alike, the source gives them in different places. Where a SMILES comes first, the peptide text is derived from it. [ ]: non-standard residue; d: D form. The star is where a group is joined. DOTA = O=C(O)CN1CCN(CC(=O)O)CCN(CC(=O)*)CCN(CC(=O)O)CC1

Assays:
[1] = pH 7.4; cited from earlier work
[2] = type: in vitro ADME, human
Experimental: (§1) Radioconjugate stability tests in 0.1 M PBS solution, 1 mM cysteine (Cys) solution, 1 mM histidine (His) solution and human serum (HS) were performed under rigorous conditions according to the procedure described in detail in our previous paper. In brief, isolated radioconjugates were dissolved in 50 µL PBS and appropriate volume of Cys, His and HS solution and then incubated at 37 °C. After the specified incubation time (depending on the half-life of a given radionuclide), which was up to 4–8 h for the ^44Sc-radiocompounds, 4 h for the ^68Ga-radiocompounds and about 6–14 days for the ^177Lu-radiocompounds, aliquots of solution were withdrawn from the mixture and the composition of the solution was analyzed on RP-HPLC in System 3 or 4 with gamma detection. The concentrations of Cys and His solutions were about 1000 times higher than that of the studied radiocompound. In the case of the radioconjugate stability study in HS, the concentration of the radiocompound was a maximum of 2–25 nmol/mL in 100% human serum. After incubation, the protein components were precipitated with a 2.5-fold volume excess of ethanol prior to RP-HPLC analysis, and then both the supernatant and precipitate radioactivity were measured with a Wizard gamma counter. The percentage of radioactivity remaining in the supernatant and bound by the precipitated serum protein components was calculated as the ratio of the radioactivity of the supernatant or the precipitate, respectively, to the sum of the radioactivity of the supernatant and the precipitate.

[3] = type: physicochemical; details: pH 7.4
Experimental: as §1

[4] = physchem; type: physicochemical; details: pH 7.4
Experimental: The lipophilicity value, defined as the decimal logarithm (logP) of the partition coefficient (P), was tested in the system of two immiscible (but saturated with each other) phases: 0.1 M PBS solution, pH 7.4, and n-octanol, in three independent experiments. Partition coefficient was determined as a ratio of radioactivity of the organic (n-octanol) and aqueous (PBS solution) phases and was shown as the mean ± SD. The lipophilicity test was carried out as follows: the tested radiocompound dissolved in 10–20 µL of PBS was incubated and intensively mixed in an equal amount of these two phases. After centrifugation, radioactivity of appropriate amounts of the separated organic (500 µL) and aqueous (100 µL) phases were measured on the Wizard gamma counter. Differences in the volume of phases taken for measurement resulted from the very low radioactivity of organic phases and were included in the calculations. Additionally, to confirm the stability of the studied radiocompounds during the experiment, the RP-HPLC analyses of the aqueous phase were performed after each lipophilicity test.

Compound	logP ± SD [1]	stability in human serum [2]	stability in PBS buffer [3]	logP ± SD [4]
[^68Ga]Ga-DOTA-Ahx-A7R [^68Ga-1]	−3.92 ± 0.03	–	–	–
[^177Lu]Lys(hArg)-Dab(Ahx-DOTA-Lu)-Pro-Arg [^177Lu-2]	−3.75 ± 0.08	–	–	–
[^177Lu]Lu-DOTA-Ahx-A7R [^177Lu-1]	−3.40 ± 0.14	–	–	–
[^68Ga]Lys(hArg)-Dab(Ahx-DOTA-Ga)-Pro-Arg [^68Ga-2]	−4.57 ± 0.05	–	–	–
CC(C)C[C@@H](NC(=O)[C@H]1CCCN1C(=O)[C@H]1CCCN1C(=O)[C@H](N)CCCNC(=N)N)C(=O)N[C@H](Cc1c[nH]c2ccccc12)C(=O)N[C@@H](C(=O)N[C@H](C)C(=O)N[C@H](CCCCNC(=O)CN1CCN(CC(=O)O)CCN(CC(=O)O)CCN(CC(=O)O)CC1)C(=O)O)[C@H](C)O [^177Lu-3, [^177Lu]^DR7A-^DLys(DOTA-Lu), metal not drawn] (H-[dR][dP][dP][dL][dW][dT][dA][dK](DOTA)-OH)	–	insufficient stability	complete stability	−4.48 ± 0.05
CC(C)C[C@@H](NC(=O)[C@H]1CCCN1C(=O)[C@H]1CCCN1C(=O)[C@H](N)CCCNC(=N)N)C(=O)N[C@H](Cc1c[nH]c2ccccc12)C(=O)N[C@@H](C(=O)N[C@H](C)C(=O)N[C@H](CCCCNC(=O)CN1CCN(CC(=O)O)CCN(CC(=O)O)CCN(CC(=O)O)CC1)C(=O)O)[C@H](C)O [^44Sc-3, [^44Sc]^DR7A-^DLys(DOTA-Sc), metal not drawn] (H-[dR][dP][dP][dL][dW][dT][dA][dK](DOTA)-OH)	–	insufficient stability	complete stability	−3.61 ± 0.03
CC(C)C[C@@H](NC(=O)[C@H]1CCCN1C(=O)[C@H]1CCCN1C(=O)[C@H](N)CCCNC(=N)N)C(=O)N[C@H](Cc1c[nH]c2ccccc12)C(=O)N[C@@H](C(=O)N[C@H](C)C(=O)N[C@H](CCCCNC(=O)CN1CCN(CC(=O)O)CCN(CC(=O)O)CCN(CC(=O)O)CC1)C(=O)O)[C@H](C)O [^68Ga-3, [^68Ga]^DR7A-^DLys(DOTA-Ga), metal not drawn] (H-[dR][dP][dP][dL][dW][dT][dA][dK](DOTA)-OH)	–	insufficient stability	complete stability	−4.11 ± 0.06
